Laboratory results as given in patent US20160122421A1 (IPIERIAN, published 2016).

T1: eTau 2
T1 construct: member of the group m9
T1 polypeptide: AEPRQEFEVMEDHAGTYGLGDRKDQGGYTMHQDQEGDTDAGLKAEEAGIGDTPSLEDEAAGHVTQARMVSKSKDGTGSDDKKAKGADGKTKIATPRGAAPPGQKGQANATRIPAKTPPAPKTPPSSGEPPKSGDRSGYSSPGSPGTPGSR

T2: eTau 1b
T2 construct: member of the group m9
T2 polypeptide: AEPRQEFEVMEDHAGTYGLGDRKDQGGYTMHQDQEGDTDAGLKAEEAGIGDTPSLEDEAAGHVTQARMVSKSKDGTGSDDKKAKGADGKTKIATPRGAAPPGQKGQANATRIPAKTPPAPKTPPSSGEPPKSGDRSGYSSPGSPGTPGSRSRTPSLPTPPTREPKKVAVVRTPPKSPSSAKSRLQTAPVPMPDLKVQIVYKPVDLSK

T3: eTau-4 peptide
T3 construct: also called synthetic eTau4 polypeptide
T3 peptide: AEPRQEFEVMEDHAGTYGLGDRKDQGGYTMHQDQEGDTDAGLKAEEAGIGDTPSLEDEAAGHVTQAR


What was measured:
[1] = biological target: T4, 383 amino acid recombinant tau (UniProt P10636-6 1-383, biotinylated where printed as biotin-rTau383 (position not given)); test: relative binding affinity, method not named (Table 4)
T4 construct: also called rTau383
T4 sequence (P10636 other isoform, or with tags, fused parts or gaps limits assumed): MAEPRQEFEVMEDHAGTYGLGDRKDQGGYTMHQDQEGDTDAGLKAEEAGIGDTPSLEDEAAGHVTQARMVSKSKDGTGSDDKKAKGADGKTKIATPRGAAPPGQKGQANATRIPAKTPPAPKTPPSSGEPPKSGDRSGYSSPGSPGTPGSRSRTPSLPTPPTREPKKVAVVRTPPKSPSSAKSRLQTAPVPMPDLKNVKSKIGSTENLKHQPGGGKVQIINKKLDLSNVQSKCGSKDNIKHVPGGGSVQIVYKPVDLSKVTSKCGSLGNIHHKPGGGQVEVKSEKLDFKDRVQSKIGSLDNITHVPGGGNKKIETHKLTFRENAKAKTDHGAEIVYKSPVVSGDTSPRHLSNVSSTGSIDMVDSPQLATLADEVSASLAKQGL

eTau 2 = biological target: T1, eTau 2; test: as above
eTau 1b = biological target: T2, eTau 1b; test: as above
[2] = biological target: eTau1a (amino acids 2-166 of fetal tau) (Homo sapiens (Human), UniProt P10636 2-541); test: as above
[3] = biological target: T4, 383 amino acid recombinant tau; test: Octet
[4] = biological target: eTau 4 (FIG. 17); test: relative binding affinity, method not named (Table 4); fifth column, headed eTau 4
eTau-4 peptide = biological target: T3, eTau-4 peptide; test: relative binding affinity, method not named (Table 4); sixth column, headed eTau 4

| Kd [1] | Kd (eTau 2) | Kd (eTau 1b) | Kd [2] | Kd [3] | koff [3] | kon [3] | Kd [4] | Kd (eTau-4 peptide) | Binder |
| --- | --- | --- | --- | --- | --- | --- | --- | --- | --- |
| 276 pM | 473 pM | 313 pM | 178 pM | 571 pM | 9.39e-05 s⁻¹ | 164000 M⁻¹ s⁻¹ | 636 pM | 629 pM | VH4/Vk3 (antibody, V domains shown, member of the group m7; also called humanized IPN002 variant VH4/Vk3) VH: EVQLVESGGALVKPGGSLRLSCAASGFSFSKYGMSWVRQAPGKGLEWVATISSSGSRTYYPDSVKGRFTISRDNAKNTLYLQMNSLRAEDTAMYYCAISWDGAMDYWGQGTTVTVSS VL: DVVMTQSPLSLPVTLGQPASISCKSSQSIVHSNGNTYLEWYLQKPGQSPQLLVYKVSNRFSGVPDRFSGSGSGTDFTLKISRVEAEDVGVYYCFQGSLVPWAFGGGTKVEIK |
| 379 pM | 564 pM | 535 pM | 325 pM | 812 pM | 0.000126 s⁻¹ | 156000 M⁻¹ s⁻¹ | 462 pM | 1030 pM | VH4/Vk4 (antibody, V domains shown, member of the group m7; also called humanized IPN002 variant VH4/Vk4) VH: EVQLVESGGALVKPGGSLRLSCAASGFSFSKYGMSWVRQAPGKGLEWVATISSSGSRTYYPDSVKGRFTISRDNAKNTLYLQMNSLRAEDTAMYYCAISWDGAMDYWGQGTTVTVSS VL: DVVMTQSPLSLPVTLGQPASISCKSSQSIVHSNGNTYLEWYLQKPGQSPQLLIYKVSNRFSGVPDRFSGSGSGTDFTLKISRVEAEDVGVYYCFQGSLVPWAFGGGTKVEIK |
| 223 pM | 261 pM | 287 pM | 327 pM | 1730 pM | 0.000232 s⁻¹ | 134000 M⁻¹ s⁻¹ | 219 pM | 411 pM | humanized IPN002 variant VH2/Vk3 (antibody, V domains shown) VH: EVHLVESGGALVKPGGSLRLSCAASGFSFSKYGMSWVRQAPGKGLEWVATISSSGSRTYYPDSVKGRFTISRDNAKNTLYLQMNSLRAEDTAMYYCSISWDGAMDYWGQGTTVTVSS VL: DVVMTQSPLSLPVTLGQPASISCKSSQSIVHSNGNTYLEWYLQKPGQSPQLLVYKVSNRFSGVPDRFSGSGSGTDFTLKISRVEAEDVGVYYCFQGSLVPWAFGGGTKVEIK |
